System: Escherichia coli TOP10
Experiment: shrunken log2 fold change of peptide-encoding DNA abundance (4.5 h post-induction vs induction); higher = less antimicrobial activity (less host growth inhibition)
Conditions: time post-induction: 4.5 h; library: site-saturation at positions 5, 18, 19, 20
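Further: peptides expressed intracellularly from a pBAD plasmid library in pooled LB shake-flask culture, induced with 0.3% L-arabinose, DNA abundance read by NGS, three biological replicates, DESeq2 with apeglm shrinkage.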

Sequence	shrunken log2 fold change
RRIRDRPPRLPRPRPRPLDWPRP	0.0834
RRIRDRPPRLPRPRPRPRHYPRP	0.0264
RRIRFRPPRLPRPRPRPWADPRP	-0.168
RRIRTRPPRLPRPRPRPESFPRP	-0.47
RRIRNRPPRLPRPRPRPNNRPRP	0.113
RRIRFRPPRLPRPRPRPENTPRP	0.003
RRIRRRPPRLPRPRPRPKWNPRP	0.0781
RRIRPRPPRLPRPRPRPMFAPRP	-0.0605
RRIRTRPPRLPRPRPRPKGLPRP	-0.117
RRIRSRPPRLPRPRPRPKPMPRP	0.2
RRIRFRPPRLPRPRPRPCCRPRP	-0.332
RRIRHRPPRLPRPRPRPTCDPRP	-0.011
RRIRLRPPRLPRPRPRPLPMPRP	0.0573
RRIRYRPPRLPRPRPRPKYLPRP	0.00379
RRIRERPPRLPRPRPRPDEDPRP	-0.209
RRIRLRPPRLPRPRPRPDKRPRP	-0.175
RRIRCRPPRLPRPRPRPIQAPRP	0.0936
RRIRERPPRLPRPRPRPCWSPRP	0.0767
RRIRGRPPRLPRPRPRPCGGPRP	0.472
RRIRRRPPRLPRPRPRPRDVPRP	0.328

Sequence	shrunken log2 fold change
RRIRWRPPRLPRPRPRPMVTPRP	-0.072
RRIRHRPPRLPRPRPRPDVWPRP	0.15
RRIRARPPRLPRPRPRPYLQPRP	-0.276
RRIRCRPPRLPRPRPRPITDPRP	-0.442
RRIRQRPPRLPRPRPRPSQQPRP	0.0129
RRIRTRPPRLPRPRPRPERPPRP	0.267
RRIRMRPPRLPRPRPRPPYRPRP	0.00408
RRIRWRPPRLPRPRPRPTIMPRP	-0.0533
RRIRARPPRLPRPRPRPMYEPRP	-0.0125
RRIRNRPPRLPRPRPRPPNKPRP	0.125
RRIRERPPRLPRPRPRPGVKPRP	-0.0766
RRIRGRPPRLPRPRPRPTFVPRP	0.782
RRIRRRPPRLPRPRPRPMEDPRP	0.0525
RRIRARPPRLPRPRPRPWAHPRP	0.0535
RRIRSRPPRLPRPRPRPICIPRP	-0.494
RRIRARPPRLPRPRPRPFFTPRP	0.617
RRIRRRPPRLPRPRPRPLQFPRP	0.313
RRIRHRPPRLPRPRPRPAGHPRP	-0.0991
RRIRARPPRLPRPRPRPMAYPRP	0.546
RRIRHRPPRLPRPRPRPRPQPRP	0.416

Sequence	shrunken log2 fold change
RRIRFRPPRLPRPRPRPLINPRP	-0.421
RRIRCRPPRLPRPRPRPKYKPRP	-0.834
RRIRERPPRLPRPRPRPGVRPRP	0.125
RRIRTRPPRLPRPRPRPIWMPRP	-0.101
RRIRNRPPRLPRPRPRPVTGPRP	-0.362
RRIRNRPPRLPRPRPRPRRDPRP	-0.0239
RRIRPRPPRLPRPRPRPEDPPRP	0.122
RRIRKRPPRLPRPRPRPKHQPRP	0.132
RRIRPRPPRLPRPRPRPGEQPRP	1.29
RRIRIRPPRLPRPRPRPILMPRP	-0.23
RRIRTRPPRLPRPRPRPWREPRP	-0.00743
RRIRGRPPRLPRPRPRPSGVPRP	0.633
RRIRGRPPRLPRPRPRPCWQPRP	0.153
RRIRQRPPRLPRPRPRPPKFPRP	0.117
RRIRMRPPRLPRPRPRPPLAPRP	1.48
RRIRARPPRLPRPRPRPCIMPRP	-0.00141
RRIRHRPPRLPRPRPRPQFHPRP	-0.153
RRIRMRPPRLPRPRPRPHLRPRP	0.0326
RRIRMRPPRLPRPRPRPGPKPRP	1.81
RRIRQRPPRLPRPRPRPHLPPRP	0.0272

Reference: the supplement of paper PMC9112550, “Optimization of the antimicrobial peptide Bac7 by deep mutational scanning” (BMC Biology, 2022)
